# Results from paper PMC5762878.
# Experiments:
# [1] = target: Flavin reductase (FlaR), endogenous in S. pneumoniae WU2 (Streptococcus pneumoniae (endogenous in strain WU2)); assay: SDS-PAGE and immunoblot of cell fractions; cytoplasmic and cell-wall fractions of WU2 WT, immunoblotted with rabbit anti-rFlaR antiserum; bands at ~17 kDa and 34 kDa in the cytoplasm, 34 kDa band also in the cell-wall fraction
# [2] = target: Recombinant flavin reductase (rFlaR), HAT-tagged (Streptococcus pneumoniae (strain WU2)); assay: SDS-PAGE with or without β-mercaptoethanol + MALDI-TOF of the bands; HAT-tagged rFlaR purified on Ni-NTA under denaturing conditions; reducing gel: major band 22 kDa, minor 45 kDa; non-reducing gel: 45 kDa major, 22 kDa minor; both bands identified by in-gel digestion and MALDI-TOF and detected by rabbit anti-rFlaR antiserum
Substance,stoichiometry N [1],stoichiometry N [2]
"Flavin reductase (FlaR), endogenous in S. pneumoniae WU2 (from UniProt A0ACD7PR00 1-174) (enzyme)",2,
"Recombinant flavin reductase (rFlaR), HAT-tagged (from UniProt A0ACD7PR00 1-174) (enzyme)",,2
